Results reported in patent US20080182978A1, “ANTI-NGF ANTIBODIES AND METHODS USING SAME” (RINAT NEUROSCIENCE CORP, priority 2002, published 2008).
Entries after “also recorded” stand apart in the source; their conditions may differ.

Target: T1, NT3 (Homo sapiens, UniProt P20783)
T1 sequence (P20783 139-257): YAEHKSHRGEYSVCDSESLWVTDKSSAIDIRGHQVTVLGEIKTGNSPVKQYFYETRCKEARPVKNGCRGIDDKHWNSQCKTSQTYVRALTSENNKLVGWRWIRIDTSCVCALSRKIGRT
Experiment: Mouse E17/18 trigeminal neuron survival assay, NT3
Format: cell-based
Details: saturating NT3; antibody up to 200 nM; 48 hours
Description: The ability of antibody E3 to specifically block NGF activity was evaluated by measurement of the capacity of the antibody to inhibit survival of mouse E17/18 trigeminal neurons in vitro in the presence of saturating concentrations of NGF, the NGF-related neurotrophin NT3, or the NGF-unrelated neurotrophic factor, macrophage stimulating protein (MSP). The survival of mouse E17/18 trigeminal neurons is a sensitive assay to evaluate the NGF-blocking activity of anti-NGF antagonist antibodies because NGF is required to support survival of these neurons at higher concentrations than the level of NGF required to support survival of E13.5 TG neurons).
The survival assay was conducted as follows: time mated pregnant Swiss Webster female mice were euthanised by CO2 inhalation. The uterine horns were removed and the embryos (at embryonic day 17 or 18) were extracted and decapitated. The trigeminal and nodose ganglia were dissected and cleaned. The ganglia were then trypsinised, mechanically dissociated and plated at a density of 100-300 cells per well in defined, serum-free medium in 4-well plates (Greiner) coated with poly-L-ornithine and laminin.
E17/18 trigeminal neurons were grown either without added neurotrophic factors (negative control) or in the presence of saturating concentrations of human NGF (400 pM and 15 pM) (positive control); NT3 (400 pM); or MSP (600 pM). […]

B1: E3: humanized, affinity matured anti-NGF antagonist antibody; variable regions SEQ ID NO:1 and 2; human IgG2a (A330P331 to S330S331), kappa (antibody, V domains shown)
VH: QVQLQESGPGLVKPSETLSLTCTVSGFSLIGYDLNWIRQPPGKGLEWIGIIWGDGTTDYNSAVKSRVTISKDTSKNQFSLKLSSVTAADTAVYYCARGGYWYATSYYFDYWGQGTLVTVS
VL: DIQMTQSPSSLSASVGDRVTITCRASQSISNNLNWYQQKPGKAPKLLIYYTSRFHSGVPSRFSGSGSGTDFTFTISSLQPEDIATYYCQQEHTLPYTFGQGTKLEIKRT
modifications: human IgG2a constant (A330S/P331S) and kappa constant missing
With B1 the “survival of E17/18 trigeminal neurons promoted by NT3” value was “had no effect; also recorded: did not inhibit”.
